Literature values, collected in publication PMC7396566.

Columns and labels:
[1] = target: TSLP:TSLPR complex (Homo sapiens) (UniProt Q969D9)
TSLP (Homo sapiens) = TSLP (Homo sapiens) (UniProt Q969D9)
IL-7Rα (Homo sapiens) = IL-7Rα (Homo sapiens) (UniProt P16871)

TSLPR, sequence (Q9HC73 23-231): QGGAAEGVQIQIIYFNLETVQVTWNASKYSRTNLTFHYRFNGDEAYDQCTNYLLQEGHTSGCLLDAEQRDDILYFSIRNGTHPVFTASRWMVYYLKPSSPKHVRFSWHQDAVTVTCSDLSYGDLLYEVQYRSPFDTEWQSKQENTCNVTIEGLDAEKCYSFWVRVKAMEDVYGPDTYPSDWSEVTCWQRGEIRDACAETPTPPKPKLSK

Kd [1] [nM]	Kd (TSLP (Homo sapiens)) [nM]	Kd (IL-7Rα (Homo sapiens)) [nM]	Substance
29			IL-7Rα (from UniProt P16871)
	32	20000	TSLPR (from UniProt Q9HC73)
